Results on 1 substance are retold here after PMC4100735.

The test addresses TNF receptor-associated factor 2 (TRAF2) (human (endogenous in HEK-293T)) (UniProt Q12933). As to the kind of experiment: co-IP; lysates of HEK-293T cells transfected with Tyr52 or Cys52 FBXO7-EGFP and treated with MG-132 (5 uM, 24 h); 100 ug protein immunoprecipitated with mouse anti-TRAF2 antibody on protein G beads in IP lysis buffer (25 mM Tris-HCl pH 7.4, 150 mM NaCl, 1% NP-40, 1 mM EDTA, 5% glycerol); blot with anti-EGFP; normal IgG as negative control.
UniProt Q12933, sequence (Q12933 whole entry): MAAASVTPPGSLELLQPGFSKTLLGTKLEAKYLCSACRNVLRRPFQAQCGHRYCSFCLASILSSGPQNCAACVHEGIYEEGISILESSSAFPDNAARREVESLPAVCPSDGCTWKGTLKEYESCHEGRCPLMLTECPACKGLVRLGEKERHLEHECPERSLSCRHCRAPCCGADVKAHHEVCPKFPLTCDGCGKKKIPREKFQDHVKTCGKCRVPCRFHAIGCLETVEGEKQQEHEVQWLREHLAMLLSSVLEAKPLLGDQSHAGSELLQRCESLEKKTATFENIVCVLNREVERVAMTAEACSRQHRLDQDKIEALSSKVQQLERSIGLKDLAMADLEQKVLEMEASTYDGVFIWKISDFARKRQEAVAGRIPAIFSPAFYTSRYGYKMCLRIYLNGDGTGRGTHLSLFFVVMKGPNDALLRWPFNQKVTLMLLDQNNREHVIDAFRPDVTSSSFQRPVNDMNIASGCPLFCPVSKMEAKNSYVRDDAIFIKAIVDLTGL

Consider “Cys52 FBXO7-EGFP (F-box only protein 7 Y52C variant, isoform 1, EGFP-tagged) (from UniProt Q9Y3I1-1 1-522) (natural protein)”, for which the FBXO7-TRAF2 interaction in co-IP, percent of Tyr52 FBXO7-EGFP is 367%.
